Here are results for two molecules from patent US7977317B2, “Compositions and methods for modulating blood-brain barrier transport” (Raptor Pharmaceutical Inc., priority 2001, dated 2011).

One series has as its system BBCEC monolayers. The series can be described thus: Transcytosis across BBCEC monolayers (in vitro BBB model). The series is classed as cell-based, bovine. The note with it: for Effect on transcytosis of 125I-p97: competitor 5 micromolar (FIG. 10a, 10b). The text has this: FIG. 10 assesses the ability of several agents to interfere with p97 transyctosis. FIG. 10a, transcytosis of I125-P97 was compared in the presence of cold p97 (5 micromolar), Lf (5 micromolar), and Tf (5 micromolar). […] FIG. 10c, RAP, a known poly-peptide inhibitor of the LDL-Receptor family was applied to the cells (25 micrograms/ml).
FIG. 11 examines the accumulation and transcytosis of p97. FIG. 11a, of [^125I]-p97, [^125I]-BSA and [^125I]-holo-transferrin one hour after i.v. injection. The radioactivity in brain was compared between the three compounds. (n=3); FIG. 11b, Accumulation of p97 and transferrin into the mouse brain parenchyma. In situ brain perfusion was performed with human [^125I]-p97 or [^125I]-holo-transferrin at a final concentration of 10 nM via a catheter inserted in the right common carotid artery. The volume of distribution (VD) of [^125I]-proteins were obtained in the whole brain homogenate (white bars), in brain capillaries (solid bars) and in brain parenchyma (hatched bars) after isolation of the right hemisphere and capillary depletion. Results were obtained for p97 (n=10) and for holo-transferrin (n=6); FIG. 11c, Transcytosis of p97 across BBCEC monolayers. Transcytosis experiments were performed 37° C. (open circles) and 4° C. (closed circles) with BBCEC monolayers. [^125I]-p97 (1 mg/ml) was added to the upper side of the cell-covered filter. One representative experiment is shown (n=4); FIG. 11d, Preferential transport of p97 across the BBCEC monolayers. Apical-to-basal and basal-to-apical transport of [^125I]-p97 (25 nM) was measured for 2 hrs at 37° C. At the end of the experiment, [^125I]-p97 was assessed in the lower or upper chambers of each well by TCA precipitation (n=4).
FIG. 13 illustrates the transcytosis and accumulation of p97 and transferrin in BBCEC monolayers. FIG. 13a, Transcytosis experiments were performed at 37° C. (solid bars) or 4° C. (white bars). [^125I]-p97 or bovine [^125I]-holo-transferrin (1 mg/ml) was added to the upper side of the cell-covered filter. At the end of the experiment, radiolabelled proteins were measured in the lower chamber of each well by TCA precipitation (n=4). Controls were also performed at 37° C. with denatured [^125I]-p97 or bovine [^125I]-holo-transferrin boiled for 30 min (grey bars) (n=2); FIG. 13b, Biospecific interaction analysis was performed with native or boiled p97 for the indicated times. MAb L235 (5 μg) was immobilized on a sensor chip (SM5) using standard procedures incorporating NHS, EDC and ethanolamine. Native and boiled p97 (5 to 30 min) diluted at 1 mg/ml in Ringer/Hepes was cooled and injected into the BIAcore. The surface plasmon resonance response obtained for native p97 and boiled p97 was plotted (in relative units (RU)) as a function of time; FIG. 13c, The accumulation of both proteins into BBEC cells were also measured. Briefly, after incubation at 37° C. (solid bars) or 4° C. (white bars) with either [^125I]-protein, cells were washed four times with cold PBS. Accumulation of both denatured proteins (grey bars) was also measured at 37° C. Filters were then removed, and the radioactivity associated with the cells was quantified (n=3).
FIG. 14 illustrates the stability of p97 and integrity of the BBCEC monolayers following p97 transcytosis. FIG. 14a, Transcytosis experiments were performed at 37° C. and 4° C. by adding p97 (1 mg/ml) to the upper compartment. At the end of the experiment, 50 μl from each lower chamber was used for SDS-polyacrylamide gel electrophoresis. After electrophoresis, the gels were stained with Coomassie Blue. A standard curve was also made with known amounts of recombinant p97 (0-2 μg); FIG. 14b. The gels were dried and scanned to quantify the amount of intact p97 that crossed the BBCEC monolayers at 37° C. and 4° C. (n=3); FIG. 14c, Effect of p97 on sucrose permeability of BBCE cell monolayers co-cultured with astrocytes. […]

The next series concerns RBE4 cells. Description: Competition of [125I]-p97 binding on rat brain endothelial cells (RBE4). As to conditions: competitor 10 micromolar, 2 hrs at 4° C. (FIG. 4). The procedure:
FIG. 4. Binding of p97 on rat brain endothelial cells. Binding p97 was performed with RBE4 that were pre-incubated 2 hrs in Ringer-Hepes. For the binding experiments, cells in 24-well microplates were incubated for 2 h at 4° C. in Ringer/Hepes in the presence of [^125I]-p97 (25 nM) and 10 micromolar concentrations of cold-p97, transferrin or lactoferin, respectively. At the end of the incubation, the cells were gently washed at 4° C. three times with 4 ml of cold-PBS. RBE4 cells were then lysed with Triton X-100 and the associated radioactivity of with cell lysates was determined.
RBE4 cells were grown in monolayers in 24 wells plastic tissue culture flasks at 37° C. under 5% CO2 in minimum essential medium Alpha and Ham's F10 (1:1) supplemented with 10% heat inactivated fetal bovine serum. For p97 binding experiments, RBE4 cells were pre-incubated at 37° C. for 2 hrs in Ringer/Hepes. ^125I-p97 in 200 μl of Ringer/Hepes was added to RBE4 cells for 2 hrs at 4° C. in the presence or absence of high concentration of cold-p97, human holo-transferrin or human lactoferrin. After the incubation, the cells were washed 4 times with PBS and the ^125I-p97 associated with the cells was measured.

Entries after “also recorded” stand apart in the source; their conditions may differ.

B1: p97: recombinant human melanotransferrin (p97), provided by Synapse Technologies (protein, UniProt P08582 20-709, looked up)
Melanotransferrin: GMEVRWCATSDPEQHKCGNMSEAFREAGIQPSLLCVRGTSADHCVQLIAAQEADAITLDGGAIYEAGKEHGLKPVVGEVYDQEVGTSYYAVAVVRRSSHVTIDTLKGVKSCHTGINRTVGWNVPVGYLVESGRLSVMGCDVLKAVSDYFGGSCVPGAGETSYSESLCRLCRGDSSGEGVCDKSPLERYYDYSGAFRCLAEGAGDVAFVKHSTVLENTDGKTLPSWGQALLSQDFELLCRDGSRADVTEWRQCHLARVPAHAVVVRADTDGGLIFRLLNEGQRLFSHEGSSFQMFSSEAYGQKDLLFKDSTSELVPIATQTYEAWLGHEYLHAMKGLLCDPNRLPPYLRWCVLSTPEIQKCGDMAVAFRRQRLKPEIQCVSAKSPQHCMERIQAEQVDAVTLSGEDIYTAGKTYGLVPAAGEHYAPEDSSNSYYVVAVVRRDSSHAFTLDELRGKRSCHAGFGSPAGWDVPVGALIQRGFIRPKDCDVLTAVSEFFNASCVPVNNPKNYPSSLCALCVGDEQGRNKCVGNSQERYYGYRGAFRCLVENAGDVAFVRHTTVFDNTNGHNSEPWAAELRSEDYELLCPNGARAEVSQFAACNLAQIPPHAVMVRPDTNIFTVYGLLDKAQDLFGDDHNKNGFKMFDSSNYHGQDLLFKDATVRAVPVGEKTTYRGWLGLDYVAALEGMSSQQC
Turning to B1, in the series on BBCEC monolayers (25 nM, after 2 hrs at 37° C. (FIG. 11d)), the “[125I]-p97 transport apical-to-basolateral relative to basolateral-to-apical” value is reported as “about 3 fold”. Also, the “Temperature dependence of p97 transcytosis” value in the series on BBCEC monolayers (37° C. versus 4° C., apical to basolateral) was “significantly higher at 37 °C than at 4 °C; also recorded: dramatic reduction”. In the series on BBCEC monolayers (37° C., 1 mg/ml (FIG. 13a)), the “Transport from the apical to the basolateral surface of ECs compared with transferrin” value is reported as “much higher than for transferrin”. Besides, the “Saturability of p97 transcytosis” value in the series with BBCEC monolayers (FIG. 9) was “saturable phenomenon”. Also, the “Degradation of p97 after transcytosis” value in the series with BBCEC monolayers (SDS-PAGE of lower compartment, 30-120 min (FIG. 14a)) was “no apparent degradation”. In the series with BBCEC monolayers (boiled 30 min, 37° C. (FIG. 13a)), the “Effect of heat-denaturation on passage through BBCEC monolayers” value is given as “reduced the passage”. Moreover, the “Effect on transcytosis of 125I-p97” value in the series on BBCEC monolayers is recorded as “successfully reduced”. The “Membrane bound p97 transcytosed” value in the series on BBCEC monolayers (in 10 minutes (FIG. 20)) is 80%. For the same molecule, the “Total amount of intact p97 after transendothelial transcytosis” value in the series with BBCEC monolayers (p97 1 mg/ml, gel densitometry (FIG. 14b)) came out at 35 μg/cm^2. For the same molecule, the “Inhibition of [125I]-p97 binding to RBE4 cells” value in the series on RBE4 cells was “competitively inhibit”.

B2: lactoferrin: lactoferrin (Lf), LRP ligand used as competitor (protein, UniProt P02788 20-710, looked up)
Lactotransferrin: GRRRSVQWCAVSQPEATKCFQWQRNMRKVRGPPVSCIKRDSPIQCIQAIAENRADAVTLDGGFIYEAGLAPYKLRPVAAEVYGTERQPRTHYYAVAVVKKGGSFQLNELQGLKSCHTGLRRTAGWNVPIGTLRPFLNWTGPPEPIEAAVARFFSASCVPGADKGQFPNLCRLCAGTGENKCAFSSQEPYFSYSGAFKCLRDGAGDVAFIRESTVFEDLSDEAERDEYELLCPDNTRKPVDKFKDCHLARVPSHAVVARSVNGKEDAIWNLLRQAQEKFGKDKSPKFQLFGSPSGQKDLLFKDSAIGFSRVPPRIDSGLYLGSGYFTAIQNLRKSEEEVAARRARVVWCAVGEQELRKCNQWSGLSEGSVTCSSASTTEDCIALVLKGEADAMSLDGGYVYTAGKCGLVPVLAENYKSQQSSDPDPNCVDRPVEGYLAVAVVRRSDTSLTWNSVKGKKSCHTAVDRTAGWNIPMGLLFNQTGSCKFDEYFSQSCAPGSDPRSNLCALCIGDEQGENKCVPNSNERYYGYTGAFRCLAENAGDVAFVKDVTVLQNTDGNNNEAWAKDLKLADFALLCLDGKRKPVTEARSCHLAMAPNHAVVSRMDKVERLKQVLLHQQAKFGRNGSDCPDKFCLFQSETKNLLFNDNTECLARLHGKTTYEKYLGPQYVAGITNLKKCSTSPLLEACEFLRK
As for B2, the “Effect on transcytosis of 125I-p97” value with BBCEC monolayers was “only the cold p97 successfully reduced”. The “Inhibition of [125I]-p97 binding to RBE4 cells” value with RBE4 cells is given as “competitively inhibit”.
